This experiment concerns the target T1, β1-RlucII (human, UniProt Q10567 1-949).
T1 construct: β1 subunit of AP-1, human; amplified by PCR minus the stop codon; also called β-RlucII; source: HEK293T, transfected, in live cells (BRET), cell fractions and lysate (co-IP); not shown: RlucII, C-terminal, kept
T1 sequence (looked up): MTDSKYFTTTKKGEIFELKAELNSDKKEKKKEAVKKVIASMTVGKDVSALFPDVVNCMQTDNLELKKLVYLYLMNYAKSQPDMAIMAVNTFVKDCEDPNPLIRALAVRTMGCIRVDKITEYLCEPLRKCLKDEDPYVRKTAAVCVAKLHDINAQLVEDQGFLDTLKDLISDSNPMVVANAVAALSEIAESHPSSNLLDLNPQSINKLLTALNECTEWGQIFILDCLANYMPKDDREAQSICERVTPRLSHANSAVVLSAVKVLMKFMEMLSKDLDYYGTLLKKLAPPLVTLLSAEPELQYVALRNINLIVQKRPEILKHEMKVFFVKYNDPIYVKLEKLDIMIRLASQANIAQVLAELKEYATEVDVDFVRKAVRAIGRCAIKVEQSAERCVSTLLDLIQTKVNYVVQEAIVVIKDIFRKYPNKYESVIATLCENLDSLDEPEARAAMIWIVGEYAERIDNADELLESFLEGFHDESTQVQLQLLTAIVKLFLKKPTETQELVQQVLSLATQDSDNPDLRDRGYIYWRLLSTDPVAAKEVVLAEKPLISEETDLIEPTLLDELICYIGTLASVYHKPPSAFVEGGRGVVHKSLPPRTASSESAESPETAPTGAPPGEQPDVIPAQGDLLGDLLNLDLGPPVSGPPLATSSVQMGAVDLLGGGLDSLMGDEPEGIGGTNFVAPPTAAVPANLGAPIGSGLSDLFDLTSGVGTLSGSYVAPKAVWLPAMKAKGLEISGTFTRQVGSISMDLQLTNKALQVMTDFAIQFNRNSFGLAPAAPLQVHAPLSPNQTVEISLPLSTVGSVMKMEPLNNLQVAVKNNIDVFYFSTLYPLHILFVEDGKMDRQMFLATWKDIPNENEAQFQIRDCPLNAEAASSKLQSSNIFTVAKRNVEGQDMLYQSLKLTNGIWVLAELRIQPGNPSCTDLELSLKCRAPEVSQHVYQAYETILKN
In words: FRET or BRET; BRET^2 in live HEK293T cells (γ/µ1 also in Arf1-KO cells; some panels with Brefeldin A 10 µM 15 min or co-expressed Arf1-HA forms): low constant amount of the RlucII donor, increasing amounts of the GFP10 acceptor; coelenterazine 400a 5 µM; BRET50 and BRETmax from a one-site saturation fit. As to conditions: partners not purified. On the technique in general: Bioluminescence resonance energy transfer reports proximity on the nanometre scale.

B1: β1-GFP10 (AP-1 β1 subunit, wild type) (natural protein, human, UniProt Q10567 1-949, looked up)
chain: MTDSKYFTTTKKGEIFELKAELNSDKKEKKKEAVKKVIASMTVGKDVSALFPDVVNCMQTDNLELKKLVYLYLMNYAKSQPDMAIMAVNTFVKDCEDPNPLIRALAVRTMGCIRVDKITEYLCEPLRKCLKDEDPYVRKTAAVCVAKLHDINAQLVEDQGFLDTLKDLISDSNPMVVANAVAALSEIAESHPSSNLLDLNPQSINKLLTALNECTEWGQIFILDCLANYMPKDDREAQSICERVTPRLSHANSAVVLSAVKVLMKFMEMLSKDLDYYGTLLKKLAPPLVTLLSAEPELQYVALRNINLIVQKRPEILKHEMKVFFVKYNDPIYVKLEKLDIMIRLASQANIAQVLAELKEYATEVDVDFVRKAVRAIGRCAIKVEQSAERCVSTLLDLIQTKVNYVVQEAIVVIKDIFRKYPNKYESVIATLCENLDSLDEPEARAAMIWIVGEYAERIDNADELLESFLEGFHDESTQVQLQLLTAIVKLFLKKPTETQELVQQVLSLATQDSDNPDLRDRGYIYWRLLSTDPVAAKEVVLAEKPLISEETDLIEPTLLDELICYIGTLASVYHKPPSAFVEGGRGVVHKSLPPRTASSESAESPETAPTGAPPGEQPDVIPAQGDLLGDLLNLDLGPPVSGPPLATSSVQMGAVDLLGGGLDSLMGDEPEGIGGTNFVAPPTAAVPANLGAPIGSGLSDLFDLTSGVGTLSGSYVAPKAVWLPAMKAKGLEISGTFTRQVGSISMDLQLTNKALQVMTDFAIQFNRNSFGLAPAAPLQVHAPLSPNQTVEISLPLSTVGSVMKMEPLNNLQVAVKNNIDVFYFSTLYPLHILFVEDGKMDRQMFLATWKDIPNENEAQFQIRDCPLNAEAASSKLQSSNIFTVAKRNVEGQDMLYQSLKLTNGIWVLAELRIQPGNPSCTDLELSLKCRAPEVSQHVYQAYETILKN
notes: β1 subunit of the adaptor protein complex 1 (AP-1), human; amplified by PCR minus the stop codon; also called β-GFP10; full-length β1-GFP10; source: HEK293T, transfected, in live cells (BRET), cell fractions and lysate (co-IP); not shown: GFP10, C-terminal, kept
On to B1, for which the “fold decrease of BRET50 in the presence of Arf1^Q71L-HA” value was around 4 fold.
